From paper PMC10962793, “Structural and functional characterization of sulfurtransferase from Frondihabitans sp. PAMC28461” (PLOS ONE, 2024) come the findings set out here.

For one data set, the target named is T1, FrST (Frondihabitans sp., UniProt Z9JZO3RSK1).
T1 construct: synthetic gene in pET28a, E. coli BL21(DE3); His-tag cleaved with thrombin; model 302 residues; catalytic Cys247
The experiment in a line: colorimetric ferric thiocyanate assay at […] nm, Michaelis-Menten fit. It counts as biochemical. The following applies: read-out: Kinetic parameters^* / Km.

Another data set concerns CC(CS)C(=O)O. The experiment in a line: purified protein. It counts as biochemical, Frondihabitans sp. The following applies: pH 8.0; 25.0 °C.
The next data set relates to CS(=O)(=O)S. Description: purified protein. It counts as biochemical, Frondihabitans sp. The following applies: pH 8.0; 25.0 °C.
The test system of a further data set is O=C(O)C(=O)CS. Description: purified protein. It counts as biochemical, Frondihabitans sp. The following applies: pH 8.0; 25.0 °C.
The subject of a further data set is O=C(O)CCS. Description: purified protein. It counts as biochemical, Frondihabitans sp. Particulars: pH 8.0; 25.0 °C.
The test system of the next data set is O=S(=O)(S)c1ccccc1. Description: purified protein. The following applies: pH 8.0; 25.0 °C. It counts as biochemical, Frondihabitans sp.
For data set [1], the target named is sulfurtransferase FrST from Frondihabitans sp. PAMC28461 (Frondihabitans sp. PAMC28461). Description: AUC; sedimentation velocity, 20 mM Tris-HCl pH 8.0, 200 mM NaCl, 20°C, 42,000 RPM, 280 nm, SEDFIT.

For the molecule `O=S(O)(O)=S` [Sodium thiosulfate], at FrST, the Km was 6.3 ± 0.2 mM.

As usually defined, the Vmax is the top rate of the reaction or transport when substrate is in excess. Usually kcat/Km stands for the turnover number divided by the Michaelis constant. Take FrST (Frondihabitans sp.): the Km with CC(CS)C(=O)O turned out to be 4.1 ± 0.4 mM; with CS(=O)(=O)S, 6.0 ± 0.3 mM; in the data set with O=C(O)C(=O)CS it was 13.9 ± 2.6 mM; with O=C(O)CCS it was 10.7 ± 1.3 mM; in the data set with O=S(=O)(S)c1ccccc1, 6.1 ± 0.9 mM. Moreover, the Vmax in the data set on CC(CS)C(=O)O worked out at 17.8 µmol/min/mg; in the data set on CS(=O)(=O)S, 1490 µmol/min/mg; in the data set on O=C(O)C(=O)CS, 150 µmol/min/mg; in the data set with O=C(O)CCS, 43.7 µmol/min/mg; with O=S(=O)(S)c1ccccc1 it was 7810 µmol/min/mg. Further, the specificity constant (kcat/Km) came out at 240 M⁻¹ s⁻¹ with CC(CS)C(=O)O; 14200 M⁻¹ s⁻¹ in the data set on CS(=O)(=O)S; 610 M⁻¹ s⁻¹ in the data set with O=C(O)C(=O)CS; 250 M⁻¹ s⁻¹ with O=C(O)CCS; 73000 M⁻¹ s⁻¹ in the data set on O=S(=O)(S)c1ccccc1.

In general, stoichiometry N refers to the number of molecules, sites or subunits per partner or assembly. “sulfurtransferase FrST from Frondihabitans sp. PAMC28461 (enzyme)” registered a stoichiometry N in data set [1] of 2.
